In the supplement of paper PMC10567573:

B1: VDR (parent)
chain: VTLELSQLSMLPHLADLVSYSIQK

Variants of: B1
Assay: protein stability index of a GFP-peptide fusion (GPS, HEK-293T) (PSI 1-6); higher = more stable
Settings: c terminus: a fixed tail appended
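Further: lentivirally expressed fusions sorted by FACS into six bins by GFP to DsRed ratio, PSI derived from sequencing read proportions per bin multiplied by bin number.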

Protein stability index, by site and new letter:
Q23: L 3.08, F 4.15, T 2.74, H 5.2, G 2.84, S 2.05, E 3.09, N 2.07, I 2.56, V 2.59, C 2.33, Y 1.97, W 1.56
L14: Y 3.47, K 2.31, A 2.18, V 3.03, T 2.12, F 2.69, Q 2.22, C 2.09, P 1.85, R 1.86, I 3.33, M 3.71, H 2.6, D 2.49, E 2.88, N 1.61
V1: D 2.29, N 1.81, T 3, S 1.99, W 2.08, P 1.58, G 2.5, E 1.9, Y 2.2, Q 2.66, R 3.03, M 2.18, F 2.61, A 1.63, L 4.07, H 2.44, K 1.86
L8: D 2.91, M 3.27, K 3.33, C 2.43, P 2.33, R 2.25, H 2.92, Y 2.47, Q 1.54
M10: L 2.62, A 2.73, D 1.71, N 2.14, C 3.52, W 3.71, T 2.87, I 2.35, E 1.87, Y 2.33, P 2.64, R 3.32, S 1.96, G 2.09, H 2.76, K 1.69
Y20: K 2.33, I 3.08, E 2.97, L 3.69, A 1.94, M 2.91, W 2.91, T 2.31, C 2.66, G 2.73, P 2.3, H 3.24
L5: W 2.81, I 3.82, H 2.33, M 4.44, G 2.07, N 1.93, R 2.5, S 1.92, Q 2.01, Y 3.55, P 1.86, A 2.12, E 1.71, T 2.04
P12: S 2.38, L 3.04, Y 3.69, A 2.4, W 4.36, F 1.44, I 3.14, T 3.29, N 2.22, G 2.02, R 3.79, Q 3.63, V 2.61
T2: C 4.12, V 3.63, F 3.02, E 2.22, Q 2.22, H 2.06, G 1.76, L 1.75, R 4.52, D 1.6, I 4.5, W 2.48, P 1.42, K 2.4, M 2.16, S 3.12
S19: V 4.3, G 4.13, I 2.76, K 1.68, A 2.23, Y 2.42, H 2.79, P 2.63, M 3.08, L 4.2, D 2.27, C 2.33, F 3.49, T 3.23
S9: R 3.06, L 2.79, M 3.43, D 2.83, H 3.83, W 3.43, F 2.67, P 1.97, K 3.79, Q 2.24, E 3.48, G 3.56, Y 2.63
D16: T 2.91, K 4.49, N 3.07, C 3.86, F 3.5, R 3.75, P 3.09, E 4.21, G 1.67, Y 2.31, Q 3.98, H 3, S 2.82, W 2.26, V 3.99
V18: A 3.69, I 2.79, E 1.73, Q 2.76, R 2.57, C 4.49, P 1.88, T 1.49, H 2.04, M 2.99, N 1.8, G 1.78, L 3.33, F 3.13, Y 3.48
S6: W 2.88, G 3.13, N 2.58, F 2.88, M 2.06, L 3.3, H 3.94, C 2.65, V 3.64, K 1.81, E 2.77, T 1.28, Q 2.54, R 1.52, A 2.88
E4: R 3.12, F 2.88, K 3.75, T 2.67, V 3.1, P 3.67, A 2.69, N 2.66, M 3.22, G 2.6, Q 3.55, Y 2.58, C 3.83, L 4.64
L3: K 1.16, S 1.5, A 2.21, C 1.99, V 2.45, F 1.95, T 1.97, P 2.49, W 4.09, D 2.09, G 2.67
L17: V 1.66, A 2.04, C 3.09, W 3.14, Q 2.42, M 2.75, S 1.6, G 1.33, N 1.77, K 1.68
A15: I 3.26, P 2.1, F 2.81, Q 2.83, M 2.78, S 2.73, T 2.83, K 2.64, D 3.12, W 2.67, E 1.85, R 2.64, L 3.63, H 4.28, G 2.59, N 2.99
S21: Y 2.45, W 3.16, H 2.5, P 1.05, V 3.87, G 2.48, R 2.13, Q 1.43, F 3.64, I 1.89, N 3.47, D 3.11
K24: I 4.63, T 3.5, N 3.71, R 3.01, P 2.95, A 2.14, H 5.43, E 3.5, Y 3.25, M 3.28, Q 3.06, G 2.79, C 2.39, S 2.66, W 3.71
Q7: E 3.06, T 3.45, L 3.66, W 2.56, G 1.33, N 2.84, V 2.68, C 2.21, M 3.99, S 2.99, Y 2.81, D 2.45, H 3.22, A 3.54
H13: G 2.52, F 2.48, S 2.57, I 3.46, T 2.23, M 4.11, K 2.92, D 2.87, N 2.13, W 1.99, Y 2.58, P 2.69, V 1.98
L11: A 1.62, N 1.71, T 2.73, S 2.19, H 3.18, W 2.6, Q 2.42, G 1.55, M 2.38, C 2.65, E 1.52, I 3.11, V 2.06, Y 3.22, D 1.23, P 3.08, F 2.5
I22: K 1.72, A 1.56, G 2.47, N 2.32, S 1.79, D 2.23, M 3.49, R 2.12, W 1.98, E 1.92, V 4.61, Q 2.74, F 2.12, H 2.34
